The RNAGym collection of RNA variant scans (doi:10.7554/elife.80360)

B1: Hairpin Ribozyme (parent)
chain: GUCCUCUUUCACGUGCGCGUGAAAGAGAGAAGUGAACCAGAGAAACACACGUUGUGGUAUAUUACCUGGUA

Variants of: B1
Assay: self-cleavage, relative activity (ratio to wild type); higher = more cleavage; co-transcriptional

Variant | self-cleavage
GUCCUCUUUCACGUGCGCGUGAAAGAGAGAAGUGAACCAGAGAAACACACCUUGUGGUAUAUUACCUGCUA | 0.28
GUCCUCUUUCACGUGCGCGUGAAAGAGAGAAGUGAACCAGAGAAACACACCUUGUGGUAUAUGACCUGGUA | 0.0973
GUCCUCUUUCACGUGCGCGUGAAAGAGAGAAGUGAACCAGAGAAACACACCUUGUGGUAUAUAACCUGGUA | 0.199
GUCCUCUUUCACGUGCGCGUGAAAGAGAGAAGUGAACCAGAGAAACACACGCUGUGGUAUAUUUCCUGGUA | 0.331
GUCCUCUUUCACGUGCGCGUGAAAGAGAGAAGUGAACCAGAGAAACACACUUGGUGGUAUAUUACCUGGUA | 0.707
GUCCUCUUUCACGUGCGCGUGAAAGAGAGAAGUGAACCAGAGAAACACACUUUGUGGUAUAUAACCUGGUA | 0.215
GUCCUCUUUCACGUGCGCGUGAAAGAGAGAAGUGAACCAGAGAAACACACUUUGUGGUAUAUGACCUGGUA | 0.16
GUCCUCUUUCACGUGCGCGUGAAAGAGAGAAGUGAACCAGAGAAACACACGAUGUGGUAUAUUAUCUGGUA | 0.328
GUCCUCUUUCACGUGCGCGUGAAAGAGAGAAGUGAACCAGAGAAACACACGAUGUGAUAUAUUACCUGGUA | 0.182
GUCCUCUUUCACGUGCGCGUGAAAGAGAGAAGUGAACCAGAGAAACACACGAUGUGUUAUAUUACCUGGUA | 0.267
GUCCUCUUUCACGUGCGCGUGAAAGAGAGAAGUGAACCAGAGAAACACACUUUGUGGUAUAUUUCCUGGUA | 0.167
GUCCUCUUUCACGUGCGCGUGAAAGAGAGAAGUGAACCAGAGAAACACACUUUGUGGUAUAUUACUUGGUA | 0.599
GUCCUCUUUCACGUGCGCGUGAAAGAGAGAAGUGAACCAGAGAAACACACCUUGUGGUACAUUACCUGGUA | 1.23
GUCCUCUUUCACGUGCGCGUGAAAGAGAGAAGUGAACCAGAGAAACACACCUUGUGGUAAAUUACCUGGUA | 0.589
GUCCUCUUUCACGUGCGCGUGAAAGAGAGAAGUGAACCAGAGAAACACACGAAGUGGUAUAUUACCUGGUA | 0.817
GUCCUCUUUCACGUGCGCGUGAAAGAGAGAAGUGAACCAGAGAAACACACGAGGUGGUAUAUUACCUGGUA | 1.01
GUCCUCUUUCACGUGCGCGUGAAAGAGAGAAGUGAACCAGAGAAACACACGAUAUGGUAUAUUACCUGGUA | 0.621
GUCCUCUUUCACGUGCGCGUGAAAGAGAGAAGUGAACCAGAGAAACACACCUUGUGGUAUAUUGCCUGGUA | 0.521
GUCCUCUUUCACGUGCGCGUGAAAGAGAGAAGUGAACCAGAGAAACACACCUUGUGGUAUAUUCCCUGGUA | 0.156
GUCCUCUUUCACGUGCGCGUGAAAGAGAGAAGUGAACCAGAGAAACACACUUUAUGGUAUAUUACCUGGUA | 0.72
GUCCUCUUUCACGUGCGCGUGAAAGAGAGAAGUGAACCAGAGAAACACACUUUUUGGUAUAUUACCUGGUA | 0.508
GUCCUCUUUCACGUGCGCGUGAAAGAGAGAAGUGAACCAGAGAAACACACCUUGUGCUAUAUUACCUGGUA | 0.152
GUCCUCUUUCACGUGCGCGUGAAAGAGAGAAGUGAACCAGAGAAACACACUUUGUGGUAUAUUAUCUGGUA | 0.284
GUCCUCUUUCACGUGCGCGUGAAAGAGAGAAGUGAACCAGAGAAACACACUUUGUGGUAUAUUAACUGGUA | 1.21
GUCCUCUUUCACGUGCGCGUGAAAGAGAGAAGUGAACCAGAGAAACACACGCUGUGGUAUAUUACCUGGUC | 1.51
GUCCUCUUUCACGUGCGCGUGAAAGAGAGAAGUGAACCAGAGAAACACACGCUGUGGUAUAUUACCUGGUG | 1.08

Variant | self-cleavage
GUCCUCUUUCACGUGCGCGUGAAAGAGAGAAGUGAACCAGAGAAACACACGAUGUGGUAUAGUACCUGGUA | 0.0279
GUCCUCUUUCACGUGCGCGUGAAAGAGAGAAGUGAACCAGAGAAACACACGAUGUGGUAUACUACCUGGUA | 0.187
GUCCUCUUUCACGUGCGCGUGAAAGAGAGAAGUGAACCAGAGAAACACACGAUGUGGUAUAUUACCUCGUA | 0.231
GUCCUCUUUCACGUGCGCGUGAAAGAGAGAAGUGAACCAGAGAAACACACCUGGUGGUAUAUUACCUGGUA | 0.675
GUCCUCUUUCACGUGCGCGUGAAAGAGAGAAGUGAACCAGAGAAACACACCUCGUGGUAUAUUACCUGGUA | 0.828
GUCCUCUUUCACGUGCGCGUGAAAGAGAGAAGUGAACCAGAGAAACACACUUUGUGGUAUAUUACCUGGUU | 0.793
GUCCUCUUUCACGUGCGCGUGAAAGAGAGAAGUGAACCAGAGAAACACACUUUGUGUUAUAUUACCUGGUA | 0.271
GUCCUCUUUCACGUGCGCGUGAAAGAGAGAAGUGAACCAGAGAAACACACUUUGUGCUAUAUUACCUGGUA | 0.137
GUCCUCUUUCACGUGCGCGUGAAAGAGAGAAGUGAACCAGAGAAACACACAUUGUGGGAUAUUACCUGGUA | 1.12
GUCCUCUUUCACGUGCGCGUGAAAGAGAGAAGUGAACCAGAGAAACACACUCUGUGGUAUAUUACCUGGUA | 1
GUCCUCUUUCACGUGCGCGUGAAAGAGAGAAGUGAACCAGAGAAACACACGCUGUGGUAUUUUACCUGGUA | 0.226
GUCCUCUUUCACGUGCGCGUGAAAGAGAGAAGUGAACCAGAGAAACACACGCUGUGGUAUCUUACCUGGUA | 0.263
GUCCUCUUUCACGUGCGCGUGAAAGAGAGAAGUGAACCAGAGAAACACACGCUGUGGUAUGUUACCUGGUA | 0.253
GUCCUCUUUCACGUGCGCGUGAAAGAGAGAAGUGAACCAGAGAAACACACCUUGCGGUAUAUUACCUGGUA | 0.306
GUCCUCUUUCACGUGCGCGUGAAAGAGAGAAGUGAACCAGAGAAACACACCUUGGGGUAUAUUACCUGGUA | 0.268
GUCCUCUUUCACGUGCGCGUGAAAGAGAGAAGUGAACCAGAGAAACACACAUAGUGGUAUAUUACCUGGUA | 0.869
GUCCUCUUUCACGUGCGCGUGAAAGAGAGAAGUGAACCAGAGAAACACACAUGGUGGUAUAUUACCUGGUA | 0.765
GUCCUCUUUCACGUGCGCGUGAAAGAGAGAAGUGAACCAGAGAAACACACGAUGGGGUAUAUUACCUGGUA | 0.372
GUCCUCUUUCACGUGCGCGUGAAAGAGAGAAGUGAACCAGAGAAACACACUUUGUGGAAUAUUACCUGGUA | 0.439
GUCCUCUUUCACGUGCGCGUGAAAGAGAGAAGUGAACCAGAGAAACACACGAUGUGGUAUAUUACCUGGUA | 1.03
GUCCUCUUUCACGUGCGCGUGAAAGAGAGAAGUGAACCAGAGAAACACACGCUGUGGUAUAUUACCUGGUA | 0.97
GUCCUCUUUCACGUGCGCGUGAAAGAGAGAAGUGAACCAGAGAAACACACCUUGUGGUAUAGUACCUGGUA | 0.184
GUCCUCUUUCACGUGCGCGUGAAAGAGAGAAGUGAACCAGAGAAACACACCUUGUGGUAUAAUACCUGGUA | 0.141
GUCCUCUUUCACGUGCGCGUGAAAGAGAGAAGUGAACCAGAGAAACACACAUUGUGGUAUAGUACCUGGUA | 0.262
GUCCUCUUUCACGUGCGCGUGAAAGAGAGAAGUGAACCAGAGAAACACACAAUGUGGUAUAUUACCUGGUA | 1.15
GUCCUCUUUCACGUGCGCGUGAAAGAGAGAAGUGAACCAGAGAAACACACAUUGUGGUAUAUUACCUGGGA | 0.792

Variant | self-cleavage
GUCCUCUUUCACGUGCGCGUGAAAGAGAGAAGUGAACCAGAGAAACACACCUUGUGGUAUAUUACCUGGCA | 1.01
GUCCUCUUUCACGUGCGCGUGAAAGAGAGAAGUGAACCAGAGAAACACACCUUGUGGUAUAUUACCUGGAA | 0.898
GUCCUCUUUCACGUGCGCGUGAAAGAGAGAAGUGAACCAGAGAAACACACGAUGUGGUAUAUUUCCUGGUA | 0.177
GUCCUCUUUCACGUGCGCGUGAAAGAGAGAAGUGAACCAGAGAAACACACCUUGUUGUAUAUUACCUGGUA | 0.147
GUCCUCUUUCACGUGCGCGUGAAAGAGAGAAGUGAACCAGAGAAACACACGCUGUGGUCUAUUACCUGGUA | 0.254
GUCCUCUUUCACGUGCGCGUGAAAGAGAGAAGUGAACCAGAGAAACACACGCUGUGGUGUAUUACCUGGUA | 0.0564
GUCCUCUUUCACGUGCGCGUGAAAGAGAGAAGUGAACCAGAGAAACACACCUUGUGGUAUAUUAGCUGGUA | 0.205
GUCCUCUUUCACGUGCGCGUGAAAGAGAGAAGUGAACCAGAGAAACACACGAUGUGGUAAAUUACCUGGUA | 0.988
GUCCUCUUUCACGUGCGCGUGAAAGAGAGAAGUGAACCAGAGAAACACACGAUGUGGUACAUUACCUGGUA | 1.42
GUCCUCUUUCACGUGCGCGUGAAAGAGAGAAGUGAACCAGAGAAACACACUUUGCGGUAUAUUACCUGGUA | 0.245
GUCCUCUUUCACGUGCGCGUGAAAGAGAGAAGUGAACCAGAGAAACACACUUUGAGGUAUAUUACCUGGUA | 0.302
GUCCUCUUUCACGUGCGCGUGAAAGAGAGAAGUGAACCAGAGAAACACACUUUGUGGUAUACUACCUGGUA | 0.324
GUCCUCUUUCACGUGCGCGUGAAAGAGAGAAGUGAACCAGAGAAACACACGAUGUGGUUUAUUACCUGGUA | 0.243
GUCCUCUUUCACGUGCGCGUGAAAGAGAGAAGUGAACCAGAGAAACACACCUUGUGGAAUAUUACCUGGUA | 0.653
GUCCUCUUUCACGUGCGCGUGAAAGAGAGAAGUGAACCAGAGAAACACACCUUAUGGUAUAUUACCUGGUA | 0.136
GUCCUCUUUCACGUGCGCGUGAAAGAGAGAAGUGAACCAGAGAAACACACUUUGUGGUACAUUACCUGGUA | 1.49
GUCCUCUUUCACGUGCGCGUGAAAGAGAGAAGUGAACCAGAGAAACACACUUUGUGGUAGAUUACCUGGUA | 0.659
GUCCUCUUUCACGUGCGCGUGAAAGAGAGAAGUGAACCAGAGAAACACACGAUGUGGUAUAUUACCUGGUC | 1.46
GUCCUCUUUCACGUGCGCGUGAAAGAGAGAAGUGAACCAGAGAAACACACGAUGUCGUAUAUUACCUGGUA | 0.124
GUCCUCUUUCACGUGCGCGUGAAAGAGAGAAGUGAACCAGAGAAACACACGAUGUUGUAUAUUACCUGGUA | 0.196
GUCCUCUUUCACGUGCGCGUGAAAGAGAGAAGUGAACCAGAGAAACACACCUUGUGGUAUAUUACGUGGUA | 0.206
GUCCUCUUUCACGUGCGCGUGAAAGAGAGAAGUGAACCAGAGAAACACACUUUGUGGUAUAUUACCGGGUA | 0.384
GUCCUCUUUCACGUGCGCGUGAAAGAGAGAAGUGAACCAGAGAAACACACGAUGUGGUAUAUUACGUGGUA | 0.149
GUCCUCUUUCACGUGCGCGUGAAAGAGAGAAGUGAACCAGAGAAACACACGAUGUGGUAUAUUACUUGGUA | 0.604
